Biological target: T1, npl4_human NPLOC4 (UniProt Q8TAT6)
T1 sequence: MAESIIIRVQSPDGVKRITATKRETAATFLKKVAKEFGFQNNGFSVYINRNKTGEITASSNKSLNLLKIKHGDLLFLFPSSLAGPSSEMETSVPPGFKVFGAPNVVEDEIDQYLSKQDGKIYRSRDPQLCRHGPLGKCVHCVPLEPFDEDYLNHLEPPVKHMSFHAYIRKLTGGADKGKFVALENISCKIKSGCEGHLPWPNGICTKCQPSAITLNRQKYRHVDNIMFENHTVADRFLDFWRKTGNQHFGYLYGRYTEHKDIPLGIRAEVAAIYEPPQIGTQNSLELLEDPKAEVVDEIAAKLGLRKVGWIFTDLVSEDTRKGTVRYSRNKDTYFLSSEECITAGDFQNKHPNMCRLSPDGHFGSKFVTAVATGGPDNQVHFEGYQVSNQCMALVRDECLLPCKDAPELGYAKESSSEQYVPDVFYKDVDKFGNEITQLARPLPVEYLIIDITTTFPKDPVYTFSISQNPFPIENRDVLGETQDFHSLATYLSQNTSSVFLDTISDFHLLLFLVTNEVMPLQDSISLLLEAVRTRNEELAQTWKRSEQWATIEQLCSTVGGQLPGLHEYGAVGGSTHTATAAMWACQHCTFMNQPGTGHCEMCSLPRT

effect of a mutation on the interaction: decreasing interaction
Substance: Polyubiquitin-C (Homo sapiens) (from UniProt P0CG48) I44A
